# Data reported in IntAct's records for PubMed 20404169.
# B1: Protein kinase C and casein kinase substrate in neurons protein 1 (Mus musculus), Q61644 (parent)
# chain: MSGSYDEASEEITDSFWEVGNYKRTVKRIDDGHRLCNDLMSCVQERAKIEKAYAQQLTDWAKRWRQLIEKGPQYGSLERAWGAMMTEADKVSELHQEVKNSLLNEDLEKVKNWQKDAYHKQIMGGFKETKEAEDGFRKAQKPWAKKMKELEAAKKAYHLACKEERLAMTREMNSKTEQSVTPEQQKKLVDKVDKCRQDVQKTQEKYEKVLEDVGKTTPQYMEGMEQVFEQCQQFEEKRLVFLKEVLLDIKRHLNLAENSSYMHVYRELEQAIRGADAQEDLRWFRSTSGPGMPMNWPQFEEWNPDLPHTTAKKEKQPKKAEGATLSNATGAVESTSQAGDRGSVSSYDRGQTYATEWSDDESGNPFGGNEANGGANPFEDDAKGVRVRALYDYDGQEQDELSFKAGDELTKLGEEDEQGWCRGRLDSGQLGLYPANYVEAI
# partner: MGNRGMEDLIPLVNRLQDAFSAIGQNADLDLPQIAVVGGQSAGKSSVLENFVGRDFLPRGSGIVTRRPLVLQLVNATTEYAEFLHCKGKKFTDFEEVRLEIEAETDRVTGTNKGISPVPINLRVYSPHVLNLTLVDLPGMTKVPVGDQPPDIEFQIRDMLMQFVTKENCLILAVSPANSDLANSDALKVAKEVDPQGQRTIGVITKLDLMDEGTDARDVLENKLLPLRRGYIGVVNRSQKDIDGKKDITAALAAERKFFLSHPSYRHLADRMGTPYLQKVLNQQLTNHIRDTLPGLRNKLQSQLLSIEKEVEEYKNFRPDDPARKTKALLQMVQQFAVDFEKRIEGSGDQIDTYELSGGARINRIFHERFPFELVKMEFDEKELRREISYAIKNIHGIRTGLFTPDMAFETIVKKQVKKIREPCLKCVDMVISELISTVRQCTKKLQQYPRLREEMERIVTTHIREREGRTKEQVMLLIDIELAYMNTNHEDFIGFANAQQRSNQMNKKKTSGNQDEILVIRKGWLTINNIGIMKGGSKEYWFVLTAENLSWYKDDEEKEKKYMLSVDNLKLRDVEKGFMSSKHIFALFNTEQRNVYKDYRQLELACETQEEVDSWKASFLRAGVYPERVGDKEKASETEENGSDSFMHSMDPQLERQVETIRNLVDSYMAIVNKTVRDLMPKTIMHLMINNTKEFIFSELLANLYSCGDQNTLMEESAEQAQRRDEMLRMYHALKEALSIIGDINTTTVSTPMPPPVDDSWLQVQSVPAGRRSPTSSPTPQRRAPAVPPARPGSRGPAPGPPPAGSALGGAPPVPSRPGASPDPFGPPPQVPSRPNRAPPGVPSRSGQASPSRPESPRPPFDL
# Variants of: B1
# Details: with dyn1_human DNM1, Q05193
row,Variant,effect of a mutation on the interaction
1,P434L,decreasing interaction
2,D394R;E400R,decreasing interaction strength
3,E400R,decreasing interaction
